The values below come from PMC2147998.

The assay concerns the target UNG2 S23D/T60D/S64D (human) (UniProt P13051). Kind of assay: co-IP.
Sequence of UniProt P13051 (P13051 whole entry S23D/T60D/S64D): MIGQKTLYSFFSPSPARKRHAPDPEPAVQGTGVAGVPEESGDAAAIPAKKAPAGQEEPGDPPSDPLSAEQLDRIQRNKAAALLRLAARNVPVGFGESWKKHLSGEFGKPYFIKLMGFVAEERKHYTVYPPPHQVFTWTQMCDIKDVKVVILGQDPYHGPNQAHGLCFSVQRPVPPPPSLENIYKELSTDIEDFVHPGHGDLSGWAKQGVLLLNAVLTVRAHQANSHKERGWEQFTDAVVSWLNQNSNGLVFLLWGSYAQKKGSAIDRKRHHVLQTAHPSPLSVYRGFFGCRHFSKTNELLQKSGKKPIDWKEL

With “replication protein A (RPA) (from UniProt P15927 1-270) (complex)”, the RPA-binding capacity relative to WT UNG2 turned out to be 40%.
